The record followed here is KR20220139244A (dated 2022).

Where two headings read alike, the source gives them in different places.

What all share (assay): cell-based or functional assay
Assay [1] concerns the target T1, SARS-CoV-2 spike D614 (pseudovirus) (SARS-CoV-2, UniProt P0DTC2 14-1273).
The target of assay [2] is T1, SARS-CoV-2 spike D614 (pseudovirus). The source holds these as a separate data set.
For assay [3] the target is unchanged. This is another data set of the same source.
Assay [4] shares this target. This is another data set of the same source.
The target is the same in assay [5]. The source holds these as a separate data set.

B1: No. 139 antibody (Full IgG) (antibody, V domains shown)
VH: QITLKESGPTLVKPTQTLTLTCSFSGFSLSTSGVGVGWIRQPPGKALEWLALIDWDDNKYHTTSLKTRLTISKDTSKNQVVLTMTNMDPVDTATYYCARIPGFLRYRNRYYYYGMDVWGQGTTVTVSS
VL: ELVLTQPPSVSAAPGQKVTISCSGSSSNIGNNYVSWYQQLPGTAPKLLIYDNNKRPSGIPDRFSGSKSGTSATLGITGLQTGDEADYYCGTWDSSLSAGVFGGGTELTVL
Regarding B1, the IC50 (in general, the midpoint of a concentration-inhibition curve) in assay [1] amounted to 0.378 ng/mL; in assay [2], 0.35 ng/mL; in assay [3], 0.535 ng/mL; in assay [4] it was 0.535 ng/mL.

B2: No. 32 antibody (Full IgG; Table 3/4 numbering) (antibody, V domains shown)
VH: EVQLVQSGGGLIQPGGSLRLSCAASEFIVSSNYMTWVRQAPGKGLEWVSIIYPGGSTYYADSVKGRFTISRDNSKNTLYLRMNSLRAEDTAVYYCARDLPLTGTTLDYWGQGTLVTVSS
VL: not shown
In the case of B2, the IC50 in assay [5] and in assay [4] was 4.34 ng/mL throughout.
